The target of one experiment is human Kv1.3 (human) (UniProt P22001). Description: cell-based or functional assay.
The target in another experiment is trypsin. Description: phage TRF on trypsin.

Sequence of human Kv1.3 (human) (P22001 whole entry): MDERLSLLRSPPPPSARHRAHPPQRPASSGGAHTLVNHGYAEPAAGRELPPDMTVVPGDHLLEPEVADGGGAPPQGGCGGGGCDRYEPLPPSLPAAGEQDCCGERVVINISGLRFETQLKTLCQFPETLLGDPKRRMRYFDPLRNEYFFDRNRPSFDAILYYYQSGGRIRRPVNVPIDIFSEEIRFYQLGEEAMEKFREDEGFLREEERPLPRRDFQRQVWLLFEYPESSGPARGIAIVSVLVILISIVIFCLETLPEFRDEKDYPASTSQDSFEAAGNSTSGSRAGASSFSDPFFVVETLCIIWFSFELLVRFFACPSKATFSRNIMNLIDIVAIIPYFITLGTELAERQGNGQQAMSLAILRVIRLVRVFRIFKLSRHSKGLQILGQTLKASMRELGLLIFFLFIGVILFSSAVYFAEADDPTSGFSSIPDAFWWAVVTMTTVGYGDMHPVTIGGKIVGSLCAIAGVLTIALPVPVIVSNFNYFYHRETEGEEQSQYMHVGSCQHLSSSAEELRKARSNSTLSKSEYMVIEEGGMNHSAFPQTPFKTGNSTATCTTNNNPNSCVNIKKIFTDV

B1: KB_A07_ShK (antibody, V domains shown)
VH: EVQLVESGGGLVRPGGSLRLSCAASGFTFSSYAMSWVRQAPGKGLEWVSAISGSGGSTYYADSVKGRFTISRDNTKNSLYLQMTSLRADDTAFYYCVKDFGPGYGTGWFDYWGPGTLVTVSS
VL: NWYQQKPGKAPKLLIYAAGVRSCIDTIPKSRCTAFQCKHSMKYRLSFCRKTCGTCSRSGVPSRFSGSGSGTDFTLTISSLQPEDFATYYCQQGASPPYTFGQGTKVEIKR
Molecule B1 yielded an IC50, huKv1.3 current, QPatch patch clamp with human Kv1.3 (human) of 40 nM.

B2: KB_A01 (scFv on phage) (scFv, V domains shown)
VH: EVQLVESGGGLVRPGGSLRLSCAASGFTFSSYAMSWVRQAPGKGLEWVSAISGSGGSTYYADSVKGRFTISRDNTKNSLYLQMTSLRADDTAFYYCVKDFGPGYGTGWFDYWGPGTLVTVSS
VL: YLNWYQQKPGKAPKLLIYAAEVCPRILMRCKQDSDCLAGCVCGPNGFCGGTSGVPSRFSGSRSGTEFTLTISSLQPEDFATYYCQKVDDYPLTFGGGTKVEIKR
Consider B2, for which, in the experiment with trypsin, the Tryspin binding signal (FU) turned out to be 20200 FU.

B3: KB_A07_KTX (antibody, V domains shown)
VH: EVQLVESGGGLVRPGGSLRLSCAASGFTFSSYAMSWVRQAPGKGLEWVSAISGSGGSTYYADSVKGRFTISRDNTKNSLYLQMTSLRADDTAFYYCVKDFGPGYGTGWFDYWGPGTLVTVSS
VL: DIQMTQSPSSLSASVGDRVTITCRASQSISSYLNWYQQKPGKAPKLLIYAAGVGVEINVKCSGSPQCLKPCKDAGMRFGKCMNRKCHCTPKSRSGVPSRFSGSGSGTDFTLTISSLQPEDFATYYCQQGASPPYTFGQGTKVEIKR
Consider B3, for which, in the experiment with human Kv1.3 (human), the IC50, huKv1.3 current, QPatch patch clamp was 900 nM.

B4: KB_A07_MoKa-1 (antibody, V domains shown)
VH: EVQLVESGGGLVRPGGSLRLSCAASGFTFSSYAMSWVRQAPGKGLEWVSAISGSGGSTYYADSVKGRFTISRDNTKNSLYLQMTSLRADDTAFYYCVKDFGPGYGTGWFDYWGPGTLVTVSS
VL: DIQMTQSPSSLSASVGDRVTITCRASQSISSYLNWYQQKPGKAPKLLIYAAGVINVKCSLPQQCIKPCKDAGMRFGKCMNKKCRCYSSRSGVPSRFSGSGSGTDFTLTISSLQPEDFATYYCQQGASPPYTFGQGTKVEIKRT
As to B4, the IC50, huKv1.3 current, QPatch patch clamp with human Kv1.3 (human) was above 10000 nM.

B5: KB_A05 (scFv on phage) (scFv, V domains shown)
VH: EVQLVESGGGLVRPGGSLRLSCAASGFTFSSYAMSWVRQAPGKGLEWVSAISGSGGSTYYADSVKGRFTISRDNTKNSLYLQMTSLRADDTAFYYCVKDFGPGYGTGWFDYWGPGTLVTVSS
VL: AVNWYQQLPGKAPKLLIYAADKCPRILMRCKQDSDCLAGCVCGPNGFCGGGSGIPERFSGSKSGTSASLAISGLRSEDEADYYCATWDDNLNGVVFGGGTKLTVLG
As to B5, the Tryspin binding signal (FU) with trypsin was 121000 FU.

B6: KB_A02 (scFv on phage) (scFv, V domains shown)
VH: EVQLVESGGGLVRPGGSLRLSCAASGFTFSSYAMSWVRQAPGKGLEWVSAISGSGGSTYYADSVKGRFTISRDNTKNSLYLQMTSLRADDTAFYYCVKDFGPGYGTGWFDYWGPGTLVTVSS
VL: AVNWYQQLPGKAPKLLIYAAAKCPRILMRCKQDSDCLAGCVCGPNGFCGGASGVSDRFSGSIDSSSNSASLTISGLKPEDEGDYYCQSYDSSNRWVFGGGTKVTVLG
Molecule B6 registered a Tryspin binding signal (FU) with trypsin of 183000 FU.

B7: KB_A06 (scFv on phage) (scFv, V domains shown)
VH: EVQLVESGGGLVRPGGSLRLSCAASGFTFSSYAMSWVRQAPGKGLEWVSAISGSGGSTYYADSVKGRFTISRDNTKNSLYLQMTSLRADDTAFYYCVKDFGPGYGTGWFDYWGPGTLVTVSS
VL: AVNWYQQLPGKAPKLLIYAAVRCPRILMRCKQDSDCLAGCVCGPNGFCGTPSGIPERFSGSIDRSTNSASLTISGLKTEDEADYYCQSYDSSNLNWVFGGGTKLTVLG
Regarding B7, the Tryspin binding signal (FU) with trypsin amounted to 24400 FU.

B8: KB_A03 (scFv on phage) (scFv, V domains shown)
VH: EVQLVESGGGLVRPGGSLRLSCAASGFTFSSYAMSWVRQAPGKGLEWVSAISGSGGSTYYADSVKGRFTISRDNTKNSLYLQMTSLRADDTAFYYCVKDFGPGYGTGWFDYWGPGTLVTVSS
VL: AVNWYQQLPGKAPKLLINAADRCPRILMRCKQDSDCLAGCVCGPNGFCGTNSGVPDRFSGSSSGNTASLTITGAQAEDEADYYCNSRDSSGNNWVFGGGTKVTVLG
B8 returned a Tryspin binding signal (FU) with trypsin of 28700 FU.

Source of the values: US20230331827A1, “POTASSIUM CHANNEL INHIBITORS” (priority 2017, published 2023).
